The values below come from patent US10501734B2, “Compositions and methods of use thereof for making polypeptides with many instances of nonstandard amino acids” (Yale University, priority 2014, dated 2019).

One data set relates to GFP(3TAG). Type of data set: cell-based, E. coli.
Data set [1] in a line: ATP-PPi exchange assay (amino acid activation). Type of data set: biochemical. The settings on record: for Fold change: relative to progenitor pAcFRS. On the procedure: A 25 μl ATP-PPi exchange reaction contained the following components: 100 mM HEPES-KOH (pH 7.5), 30 mM KCl, 10 mM MgCl2, 2 mM DTT, 2 mM KF, 2 mM NaPPi, 5 mM ATP, […], 2 μCi/μl of […] (PerkinElmer) and varied concentrations of amino acids (0.25, 0.5, 1.25, 2.5, 5, 10, and 20 mM, respectively). The reactions were incubated at 37° C. Time points were taken at 2 minutes, 5 minutes and 10 minutes by plotting 1 μl aliquots from the reaction immediately to the PEI-cellulose plates (Merck). For each reaction, 1 μl of blank reaction mixture containing no enzymes was set as background. The reaction mixtures were separated on the plates in 1 M urea and 1 M monopotassium phosphate. The plates were then scanned in a Molecular Dynamics Storm 860 phosphorimager (Amersham Biosciences). The ratio of ATP to PPi was determined to monitor reaction progress. The kinetic constants were derived from plotting initial velocity of a series of reactions that contained varied concentrations of amino acids. The data were analyzed by GraFit 5.0 (Erithacus Software).

The next data set has as its system ELP(30TAG)-GFP. The experiment in a line: Intact cell GFP fluorescence, ELP(30TAG)-GFP production. Conditions: plasmid-based OTSs; panel of 14 nsAAs. Type of data set: cell-based, E. coli. The protocol: Liquid cell cultures of strains harboring chromosomally integrated OTSs and GFP reporter plasmids were inoculated from frozen stocks and grown to confluence overnight. Cultures were then inoculated at 1:20 dilution in LBmin media supplemented with 30 μg/ml kanamycin. Strains were inoculated by addition of 1:20 confluent cell culture (grown overnight) and allowed to grow at 34° C. to an OD600 of 0.5-0.8 in a shaking plate incubator at 650 r.p.m (˜3 h). AARS expression was then induced by the addition of 0.2% arabinose, GFP expression was induced by the addition of 60 ng/ul anhydrotetracycline, and the appropriate nsAA was added to a concentration of 1 mM. Cells were incubated at 34° C. for an additional 16 h. Liquid cell cultures of strains harboring plasmid-based OTSs and GFP or ELP-GFP reporter plasmids were inoculated from frozen stocks and grown to confluence overnight. Cultures were then inoculated at 1:20 dilution in 2×YT media supplemented with 30 μg/ml kanamycin and 20 μg/ml chloramphenicol. […] Cells were allowed to grow at 34° C. to an OD600 of 0.5-0.8 in a shaking plate incubator at 650 r.p.m (˜3 h), reporter protein expression was then induced by the addition of 60 ng/ul anhydrotetracycline, and cells were incubated at 34° C. for an additional 16 h.
For 384 well plate-based assays, fluorescence and OD600 were directly measured following expression. For 96 well plate-based assays, cells were centrifuged at 4,000 g for 4 min. Supernatant medium was removed and cells were resuspended in PBS. This process was repeated twice with PBS. GFP fluorescence was measured on a Biotek spectrophotometric plate reader using excitation and emission wavelengths of 395 and 509 nm, respectively). Fluorescence signals were normalized by dividing the fluorescence counts by the OD600 reading. The nsAAs used in this study were purchased from Sigma-Aldrich (St. Louis, Mo.), Chemlmpex (Wood Dale, Ill.), and Bachem (Torrance, Calif.). Solutions of nsAAs (50 mM) were made in water or 50 mM NaOH; these stock solutions were diluted 50- or 100-fold (to 1 mM final concentration) into medium used for bacterial growth.

Setting [2] is: chromosomally integrated AARS, pAzF.

Where two headings read alike, the source gives them in different places.

B1: pAcFRS.1.t1: pAcFRS variant A167D, R257G, SEQ ID NO: 5 (protein)
chain: MDEFEMIKRNTSEIISEEELREVLKKDEKSALIGFEPSGKIHLGHYLQIKKMIDLQNAGFDIIILLADLHAYLNQKGELDEIRKIGDYNKKVFEAMGLKAKYVYGSEFQLDKDYTLNVYRLALKTTLKRARRSMELIAREDENPKVAEVIYPIMQVNGCHYRGVDVDVGGMEQRKIHMLARELLPKKVVCIHNPVLTGLDGEGKMSSSKGNFIAVDDSPEEIRAKIKKAYCPAGVVEGNPIMEIAKYFLEYPLTIKGPEKFGGDLTVNSYEELESLFKNKELHPMRLKNAVAEELIKILEPIRKRL
Take B1: the “higher GFP(3TAG) production compared with the progenitor enzyme” value in the data set with GFP(3TAG) (chromosomally integrated AARS, pAcF) was about 17 fold. Further, in data set [1] (nsAA pAcF), the Km came out at 1680 ± 780 µM, the kcat was 6.12 ± 0.74 ×10^−2 s^−1 and the Fold change is recorded as 5.34. Further, in data set [1] (nsAA pAzF), the Km was determined as 1490 ± 110 µM, the kcat is 3.65 ± 0.62 ×10^−2 s^−1 and the Fold change turned out to be 1.68.

B2: pAzFRS.2.t1: pAcFRS variant E107T, F108Y, Q109M, R257G, SEQ ID NO: 14 (protein)
chain: MDEFEMIKRNTSEIISEEELREVLKKDEKSALIGFEPSGKIHLGHYLQIKKMIDLQNAGFDIIILLADLHAYLNQKGELDEIRKIGDYNKKVFEAMGLKAKYVYGSTYMLDKDYTLNVYRLALKTTLKRARRSMELIAREDENPKVAEVIYPIMQVNGCHYRGVDVAVGGMEQRKIHMLARELLPKKVVCIHNPVLTGLDGEGKMSSSKGNFIAVDDSPEEIRAKIKKAYCPAGVVEGNPIMEIAKYFLEYPLTIKGPEKFGGDLTVNSYEELESLFKNKELHPMRLKNAVAEELIKILEPIRKRL
B2: in the data set on GFP(3TAG) (setting [2]), the “higher GFP(3TAG) production compared with the progenitor enzyme” value was about 25 fold. In addition, in data set [1] (nsAA pAzF), the Km is 1400 ± 350 µM, the kcat is on record as 4.14 ± 0.23 ×10^−2 s^−1 and the Fold change amounted to 2.02.

B3: pAcFRS: progenitor M. jannaschii based p-acetyl-L-phenylalanine AARS, SEQ ID NO:1 (Young, et al., 2010) (protein, listed as Methanocaldococcus jannaschii)
chain: MDEFEMIKRNTSEIISEEELREVLKKDEKSALIGFEPSGKIHLGHYLQIKKMIDLQNAGFDIIILLADLHAYLNQKGELDEIRKIGDYNKKVFEAMGLKAKYVYGSEFQLDKDYTLNVYRLALKTTLKRARRSMELIAREDENPKVAEVIYPIMQVNGCHYRGVDVAVGGMEQRKIHMLARELLPKKVVCIHNPVLTGLDGEGKMSSSKGNFIAVDDSPEEIRAKIKKAYCPAGVVEGNPIMEIAKYFLEYPLTIKRPEKFGGDLTVNSYEELESLFKNKELHPMRLKNAVAEELIKILEPIRKRL
For B3, the “decrease in the yield of GFP(3TAG) by genomic integration of the OTS” value in the data set with GFP(3TAG) (RF1 deficient GRO, chromosomal versus plasmid OTS) is about 20 fold. Moreover, in data set [1] (nsAA pAcF), the Km was 7340 ± 1620 µM, the kcat is 5.01 ± 0.48 ×10^−2 s^−1 and the Fold change turned out to be 1. In data set [1] (nsAA pAzF), the Km was 3040 ± 270 µM, the kcat is listed as 4.45 ± 0.13 ×10^−2 s^−1 and the Fold change amounted to 1.

B4: pAcFRS.2.t1: pAcFRS variant L65V, A167D, R257G, SEQ ID NO: 8 (protein)
chain: MDEFEMIKRNTSEIISEEELREVLKKDEKSALIGFEPSGKIHLGHYLQIKKMIDLQNAGFDIIIVLADLHAYLNQKGELDEIRKIGDYNKKVFEAMGLKAKYVYGSEFQLDKDYTLNVYRLALKTTLKRARRSMELIAREDENPKVAEVIYPIMQVNGCHYRGVDVDVGGMEQRKIHMLARELLPKKVVCIHNPVLTGLDGEGKMSSSKGNFIAVDDSPEEIRAKIKKAYCPAGVVEGNPIMEIAKYFLEYPLTIKGPEKFGGDLTVNSYEELESLFKNKELHPMRLKNAVAEELIKILEPIRKRL
Take B4: in the data set with ELP(30TAG)-GFP, the “nsAA specificity in ELP(30TAG)-GFP production” value is on record as “for pAcF over pAzF decreases when expressed on a multi-copy plasmid”. The “selectivity toward pAcF over pAzF” value in the data set with GFP(3TAG) (GFP(3TAG) expression, chromosomally integrated AARS) was “increase in selectivity”. The “decrease in aminoacylation for pAzF compared with pAcF” value in data set [1] (in vitro biochemical analysis) is listed as 5 fold. In data set [1] (nsAA pAcF), the Km stood at 2810 ± 890 µM, the kcat is 5.43 ± 0.54 ×10^−2 s^−1 and the Fold change turned out to be 2.84. Further, in data set [1] (nsAA pAzF), the Km worked out at 6590 ± 1700 µM, the kcat was 4.22 ± 0.45 ×10^−2 s^−1 and the Fold change is 0.44.

B5: pAzFRS.1.t1: pAcFRS variant D158V, I159M, L162D, A167Y, R257G, SEQ ID NO: 11 (protein)
chain: MDEFEMIKRNTSEIISEEELREVLKKDEKSALIGFEPSGKIHLGHYLQIKKMIDLQNAGFDIIILLADLHAYLNQKGELDEIRKIGDYNKKVFEAMGLKAKYVYGSEFQLDKDYTLNVYRLALKTTLKRARRSMELIAREDENPKVAEVIYPIMQVNVMHYDGVDVYVGGMEQRKIHMLARELLPKKVVCIHNPVLTGLDGEGKMSSSKGNFIAVDDSPEEIRAKIKKAYCPAGVVEGNPIMMEIAKYFLEYPLTIKGPEKFGGDLTVNSYEELESLFKNKELHPMRLKNAVAEELIKILEPIRKRL
Consider B5, for which, in the data set with ELP(30TAG)-GFP, the “nsAA specificity in ELP(30TAG)-GFP production” value is recorded as “maintains stringent specificity for pAzF”. Also, the “higher GFP(3TAG) production compared with the progenitor enzyme” value in the data set with GFP(3TAG) (setting [2]) is on record as about 5.5 fold. Also, in data set [1] (nsAA pAzF), the Km was determined as 990 ± 130 µM, the kcat is listed as 4.79 ± 0.67 ×10^−2 s^−1 and the Fold change was determined as 3.32.
